Data set [1] concerns the molecule itself. Briefly: circular dichroism thermal melting at different concentrations; PBS pH 7.4; ellipticity at 222 nm, 2-80 °C, 2 °C/min; melting temperature rises with the concentration of NEMO_(CoZi) (20.2, 24.9, 28.5 °C); monomer to coiled-coil dimer.
Another data set concerns the target T1, linear di-Ubiquitin (UniProt P0CG47 1-76; P0CG47 1-76).
T1 construct: ubiquitin (1-76), distal unit of the linear (M1-linked) dimer; ubiquitin (1-76), proximal unit, its Met1 joined by a peptide bond to Gly76 of the first unit; also called linear diubiquitin chains
Kind of data set: BLI; biotinylated NEMO_(CoZi) or NEMO_(CoZi)-Ub immobilised on streptavidin biosensors (~2 ug/mL); di-Ub at 2-225 uM; 25 °C; 100 s association, 100 s dissociation; 10 mM HEPES pH 7.4, 150 mM NaCl, 3 mM EDTA, 0.005% Tween-20; equilibrium analysis of response against di-Ub concentration. Conditions: both partners purified.

B1: synthetic biotinylated mouse NEMO CoZi domain (NEMO_(CoZi)), 83-mer (domain or fragment)
chain: EDLRQQLQQAEEALVAKQELIDKLKEEAEQHKIVMETVPVLKAQADIYKADFQAERHAREKLVEKKEYLQEQLEQLQREFNKL
modifications: biotin on the N-terminus; C-terminal amide
notes: CoZi (coiled-coil and leucine zipper) domain of mouse NEMO, 83-mer; The unmodified peptide is the same 83-mer after Alloc removal, without the auxiliary; also called unmodified NEMO_(CoZi); source: synthetic peptide (solid-phase synthesis in a single piece, HPLC purified); not shown: biotin, N-terminal, kept
Take B1: in data set [1], the binding result is “binds”. Also, in the data set with linear di-Ubiquitin, binding was put at a Kd of 25 µM.

The values are drawn from PMC6962051, “Auxiliary-assisted chemical ubiquitylation of NEMO and linear extension by HOIP” (Communications chemistry, 2019).
